Columns and labels:
HeLa Kyoto [1] = assay: solubility in G1/S (NP-40 vs SDS abundance) (log2 ratio); higher = more soluble; details: cell cycle stage: G1/S
HeLa Kyoto [2] = assay: melting temperature (median over replicates), in situ; higher = more thermally stable
HeLa Kyoto [3] = assay: thermal stability score vs G1/S (z-score of summed log2 fold changes over temperatures); higher = more thermally stable than in G1/S
HeLa Kyoto [4] = assay: solubility change mitosis vs G1/S (difference of NP-40 vs SDS log2 ratios) (log2 ratio difference); higher = more soluble in mitosis
[5] = cell cycle stage: early G1 (4.5 h after nocodazole release)
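Throughout, for melting temperature (median over replicates), in situ: HeLa Kyoto cells synchronized by double thymidine or nocodazole block, proteins quantified by TMT10plex mass spectrometry, three independent biological replicates.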
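Throughout, for solubility change mitosis vs G1/S (difference of NP-40 vs SDS log2 ratios): synchronized HeLa Kyoto cells (double thymidine block for G1/S, nocodazole release for mitosis), protein amounts in NP-40 versus SDS lysates quantified by mass spectrometry, three biological replicates.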
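Throughout, for solubility in G1/S (NP-40 vs SDS abundance): HeLa Kyoto cells arrested at G1/S by double thymidine block, proteins quantified by TMT10plex mass spectrometry in mild NP-40 versus SDS extracts, three biological replicates.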
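Throughout, for thermal stability score vs G1/S (z-score of summed log2 fold changes over temperatures): synchronized HeLa Kyoto cells, proteins quantified by TMT10plex mass spectrometry, three biological replicates, mitosis taken 0.5 h after nocodazole release, G1/S directly after double thymidine block.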

Row | Substance | solubility in G1/S (log2) (HeLa Kyoto [1]) | melting temperature (HeLa Kyoto [2]; cell cycle stage: G1/S) | melting temperature (HeLa Kyoto [2]; cell cycle stage: mitosis) | thermal stability score (HeLa Kyoto [3]; [5]) | thermal stability score (HeLa Kyoto [3]; cell cycle stage: mitosis) | solubility change mitosis (log2) (HeLa Kyoto [4])
1 | METAEKECGALGGLFQAIVNDMKSSYPIWEDFNSKATKLHSQLRTTVLAAVAFLDAFQKVADMATNTRGATRDIGSALTRMCMRHRSIETKLRQFTNALLESLINPLQERIEDWKKAANQLDKDHAKEYKRARHEIKKKSSDTLKLQKKARKELLGKGDLQPQLDSALQDVNDMYLLLEETEKQAVRRALIEERGRFCTFITFLQPVVNGELTMLGEITHLQGIIDDLVVLTAEPHKLPPASEQVIKDLKGSDYSWSYQTPPSSPSSSSSRKSSMCSAPSSSSSAKGGGAPWPGGAQTYSPSSTCRYRSLAQPATTTARLSSVSSHDSGFVSQDATYSKPPSPMPSDITSQKSSSSASSEASETCQSVSECSSPTSDWSKVGSHEQPSGATLQRRKDRVELLRDTEPGPASGGTLGPSGEEAPRPRMSPATIAAKHGEEVSPAASDLAMVLTRGLSLEHQKSSRDSLQYSSGYSTQTTTPSCSEDTIPSQGSDYDCYSVNGDADSEGPPEFDKSSTIPRNSNIAQNYRRLIQTKRPASTAGLPTAGLPTATGLPSGAPPGVATIRRTPSTKPTVRRALSSAGPIPIRPPIVPVKTPTVPDSPGYMGPTRAGSEECVFYTDETASPLAPDLAKASPKRLSLPNTAWGSPSPEAAGYPGAGAEDEQQQLAANRHSLVEKLGELVAGAHALGEGQFPFPTALSATPTEETPTPPPAATSDPPAEDMLVAIRRGVRLRRTVTNDRSAPRIL [MTSS1L] | 0.191 | 53.5 °C | 54.2 °C | 0.647 | 0.625 | -0.0468
2 | MSDNQSWNSSGSEEDPETESGPPVERCGVLSKWTNYIHGWQDRWVVLKNNALSYYKSEDETEYGCRGSICLSKAVITPHDFDECRFDISVNDSVWYLRAQDPDHRQQWIDAIEQHKTESGYGSESSLRRHGSMVSLVSGASGYSATSTSSFKKGHSLREKLAEMETFRDILCRQVDTLQKYFDACADAVSKDELQRDKVVEDDEDDFPTTRSDGDFLHSTNGNKEKLFPHVTPKGINGIDFKGEAITFKATTAGILATLSHCIELMVKREDSWQKRLDKETEKKRRTEEAYKNAMTELKKKSHFGGPDYEEGPNSLINEEEFFDAVEAALDRQDKIEEQSQSEKVRLHWPTSLPSGDAFSSVGTHRFVQKPYSRSSSMSSIDLVSASDDVHRFSSQVEEMVQNHMTYSLQDVGGDANWQLVVEEGEMKVYRREVEENGIVLDPLKATHAVKGVTGHEVCNYFWNVDVRNDWETTIENFHVVETLADNAIIIYQTHKRVWPASQRDVLYLSVIRKIPALTENDPETWIVCNFSVDHDSAPLNNRCVRAKINVAMICQTLVSPPEGNQEISRDNILCKITYVANVNPGGWAPASVLRAVAKREYPKFLKRFTSYVQEKTAGKPILF [COL4A3BP] | 0.0115 | 50.2 °C | 50.1 °C | -0.469 | -0.153 | -0.167
3 | MLKFRTVHGGLRLLGIRRTSTAPAASPNVRRLEYKPIKKVMVANRGEIAIRVFRACTELGIRTVAIYSEQDTGQMHRQKADEAYLIGRGLAPVQAYLHIPDIIKVAKENNVDAVHPGYGFLSERADFAQACQDAGVRFIGPSPEVVRKMGDKVEARAIAIAAGVPVVPGTDAPITSLHEAHEFSNTYGFPIIFKAAYGGGGRGMRVVHSYEELEENYTRAYSEALAAFGNGALFVEKFIEKPRHIEVQILGDQYGNILHLYERDCSIQRRHQKVVEIAPAAHLDPQLRTRLTSDSVKLAKQVGYENAGTVEFLVDRHGKHYFIEVNSRLQVEHTVTEEITDVDLVHAQIHVAEGRSLPDLGLRQENIRINGCAIQCRVTTEDPARSFQPDTGRIEVFRSGEGMGIRLDNASAFQGAVISPHYDSLLVKVIAHGKDHPTAATKMSRALAEFRVRGVKTNIAFLQNVLNNQQFLAGTVDTQFIDENPELFQLRPAQNRAQKLLHYLGHVMVNGPTTPIPVKASPSPTDPVVPAVPIGPPPAGFRDILLREGPEGFARAVRNHPGLLLMDTTFRDAHQSLLATRVRTHDLKKIAPYVAHNFSKLFSMENWGGATFDVAMRFLYECPWRRLQELRELIPNIPFQMLLRGANAVGYTNYPDNVVFKFCEVAKENGMDVFRVFDSLNYLPNMLLGMEAAGSAGGVVEAAISYTGDVADPSRTKYSLQYYMGLAEELVRAGTHILCIKDMAGLLKPTACTMLVSSLRDRFPDLPLHIHTHDTSGAGVAAMLACAQAGADVVDVAADSMSGMTSQPSMGALVACTRGTPLDTEVPMERVFDYSEYWEGARGLYAAFDCTATMKSGNSDVYENEIPGGQYTNLHFQAHSMGLGSKFKEVKKAYVEANQMLGDLIKVTPSSKIVGDLAQFMVQNGLSRAEAEAQAEELSFPRSVVEFLQGYIGVPHGGFPEPFRSKVLKDLPRVEGRPGASLPPLDLQALEKELVDRHGEEVTPEDVLSAAMYPDVFAHFKDFTATFGPLDSLNTRLFLQGPKIAEEFEVELERGKTLHIKALAVSDLNRAGQRQVFFELNGQLRSILVKDTQAMKEMHFHPKALKDVKGQIGAPMPGKVIDIKVVAGAKVAKGQPLCVLSAMKMETVVTSPMEGTVRKVHVTKDMTLEGDDLILEIE [PC] | -0.0111 | 51.4 °C | 51.5 °C | -1.77 | -2.7 | -0.101
4 | MALHSMRKARERWSFIRALHKGSAAAPALQKDSKKRVFSGIQPTGILHLGNYLGAIESWVRLQDEYDSVLYSIVDLHSITVPQDPAVLRQSILDMTAVLLACGINPEKSILFQQSQVSEHTQLSWILSCMVRLPRLQHLHQWKAKTTKQKHDGTVGLLTYPVLQAADILLYKSTHVPVGEDQVQHMELVQDLAQGFNKKYGEFFPVPESILTSMKKVKSLRDPSAKMSKSDPDKLATVRITDSPEEIVQKFRKAVTDFTSEVTYDPAGRAGVSNIVAVHAAVTGLSVEEVVRRSAGMNTARYKLAVADAVIEKFAPIKREIEKLKLDKDHLEKVLQIGSAKAKELAYTVCQEVKKLVGFL [WARS2] | 0.308 | 48.7 °C | 49.2 °C | 0.66 | 0.794 | -0.0372
5 | MPLSDFILALKDNPYFGAGFGLVGVGTALALARKGVQLGLVAFRRHYMITLEVPARDRSYAWLLSWLTRHSTRTQHLSVETSYLQHESGRISTKFEFVPSPGNHFIWYRGKWIRVERSREMQMIDLQTGTPWESVTFTALGTDRKVFFNILEEARELALQQEEGKTVMYTAVGSEWRPFGYPRRRRPLNSVVLQQGLADRIVRDVQEFIDNPKWYTDRGIPYRRGYLLYGPPGCGKSSFITALAGELEHSICLLSLTDSSLSDDRLNHLLSVAPQQSLVLLEDVDAAFLSRDLAVENPVKYQGLGRLTFSGLLNALDGVASTEARIVFMTTNHVDRLDPALIRPGRVDLKEYVGYCSHWQLTQMFQRFYPGQAPSLAENFAEHVLRATNQISPAQVQGYFMLYKNDPVGAIHNAESLRR [BCS1L] | -0.165 | 55.4 °C | 54.8 °C | 0.147 | -1.22 | -0.291
6 | MPGKLKVKIVAGRHLPVMDRASDLTDAFVEVKFGNTTFKTDVYLKSLNPQWNSEWFKFEVDDEDLQDEPLQITVLDHDTYSANDAIGKVYIDIDPLLYSEAATVISGWFPIYDTIHGIRGEINVVVKVDLFNDLNRFRQSSCGVKFFCTTSIPKCYRAVIIHGFVEELVVNEDPEYQWIDRIRTPRASNEARQRLISLMSGELQRKIGLKVLEMRGNAVVGYLQCFDLEGESGLVVRAIGTACTLDKLSSPAAFLPACNSPSKEMKEIPFNEDPNPNTHSSGPSTPLKNQTYSFSPSKSYSRQSSSSDTDLSLTPKTGMGSGSAGKEGGPFKALLRQQTQSALEQREFPFFTLTAFPPGFLVHVGGVVSARSVKLLDRIHNPDEPETRDAWWAEIRQEIKSHAKALGCHAVVGYSESTSICEEVCILSASGTAAVLNPRFLQDGTVEGCLEQRLEENLPTRCGFCHIPYDELNMPFPAHLTYCYNCRKQKVPDVLFTTIDLPTDATVIGKGCLIQARLCRLKKKAQAEANATAISNLLPFMEYEVHTQLMNKLKLKGMNALFGLRIQITVGENMLMGLASATGVYLAALPTPGGIQIAGKTPNDGSYEQHISHMQKKINDTIAKNKELYEINPPEISEEIIGSPIPEPRQRSRLLRSQSESSDEVTELDLSHGKKDAFVLEIDDTDAMEDVHSLLTDVPPPSGFYSCNTEIMPGINNWTSEIQMFTSVRVIRLSSLNLTNQALNKNFNDLCENLLKSLYFKLRSMIPCCLCHVNFTVSLPEDELIQVTVTAVAITFDKNQALQTTKTPVEKSLQRASTDNEELLQFPLELCSDSLPSHPFPPAKAMTVEKASPVGDGNFRNRSAPPCANSTVGVVKMTPLSFIPGAKITKYLGIINMFFIRETTSLREEGGVSGFLHAFIAEVFAMVRAHVAALGGNAVVSYIMKQCVFMENPNKNQAQCLINVSGDAVVFVRESDLEVVSSQQPTTNCQSSCTEGEVTT [C2CD5] | 0.000995 | 52.2 °C | 52.3 °C | 0.25 | -0.02 | -0.067
7 | SETX | -0.385 | 49.9 °C | 51 °C | 0.199 | 1.04 | 0.0473
8 | METLSFPRYNVAEIVIHIRNKILTGADGKNLTKNDLYPNPKPEVLHMIYMRALQIVYGIRLEHFYMMPVNSEVMYPHLMEGFLPFSNLVTHLDSFLPICRVNDFETADILCPKAKRTSRFLSGIINFIHFREACRETYMEFLWQYKSSADKMQQLNAAHQEALMKLERLDSVPVEEQEEFKQLSDGIQELQQSLNQDFHQKTIVLQEGNSQKKSNISEKTKRLNELKLSVVSLKEIQESLKTKIVDSPEKLKNYKEKMKDTVQKLKNARQEVVEKYEIYGDSVDCLPSCQLEVQLYQKKIQDLSDNREKLASILKESLNLEDQIESDESELKKLKTEENSFKRLMIVKKEKLATAQFKINKKHEDVKQYKRTVIEDCNKVQEKRGAVYERVTTINQEIQKIKLGIQQLKDAAEREKLKSQEIFLNLKTALEKYHDGIEKAAEDSYAKIDEKTAELKRKMFKMST [NUF2] | -0.0908 | 48.2 °C | 48.1 °C | 0.86 | 1.16 | -0.0858
9 | EIF2AK4 | -0.218 | 50.8 °C | 50.3 °C | 0.686 | 0.568 | -0.0694
10 | SMARCA2 | -0.129 | 47.8 °C | 49.7 °C | 2.43 | 4.33 | -0.051
11 | DNMBP | 0.00933 | 48.8 °C | 49 °C | -0.0907 | 0.88 | -0.133
12 | MAAPPARADADPSPTSPPTARDTPGRQAEKSETACEDRSNAESLDRLLPPVGTGRSPRKRTTSQCKSEPPLLRTSKRTIYTAGRPPWYNEHGTQSKEAFAIGLGGGSASGKTTVARMIIEALDVPWVVLLSMDSFYKVLTEQQQEQAAHNNFNFDHPDAFDFDLIISTLKKLKQGKSVKVPIYDFTTHSRKKDWKTLYGANVIIFEGIMAFADKTLLELLDMKIFVDTDSDIRLVRRLRRDISERGRDIEGVIKQYNKFVKPSFDQYIQPTMRLADIVVPRGSGNTVAIDLIVQHVHSQLEERELSVRAALASAHQCHPLPRTLSVLKSTPQVRGMHTIIRDKETSRDEFIFYSKRLMRLLIEHALSFLPFQDCVVQTPQGQDYAGKCYAGKQITGVSILRAGETMEPALRAVCKDVRIGTILIQTNQLTGEPELHYLRLPKDISDDHVILMDCTVSTGAAAMMAVRVLLDHDVPEDKIFLLSLLMAEMGVHSVAYAFPRVRIITTAVDKRVNDLFRIIPGIGNFGDRYFGTDAVPDGSDEEEVAYTG [UCKL1] | -0.0507 | 51.6 °C | 51.6 °C | -1.2 | -0.843 | 0.0371
13 | MAEKFDCHYCRDPLQGKKYVQKDGHHCCLKCFDKFCANTCVECRKPIGADSKEVHYKNRFWHDTCFRCAKCLHPLANETFVAKDNKILCNKCTTREDSPKCKGCFKAIVAGDQNVEYKGTVWHKDCFTCSNCKQVIGTGSFFPKGEDFYCVTCHETKFAKHCVKCNKAITSGGITYQDQPWHADCFVCVTCSKKLAGQRFTAVEDQYYCVDCYKNFVAKKCAGCKNPITGKRTVSRVSHPVSKARKPPVCHGKRLPLTLFPSANLRGRHPGGERTCPSWVVVLYRKNRSLAAPRGPGLVKAPVWWPMKDNPGTTTASTAKNAP [FHL1] | -0.37 | 56.4 °C | 58.5 °C | 0.0455 | -3.17 | -0.0498

From the supplement of paper PMC5998384
